Assay results as given in paper PMC9098846, “Molecular insights into biogenesis of glycosylphosphatidylinositol anchor proteins” (Nature Communications, 2022).

T1: GPAA1, subunit of the human GPI transamidase (GPI-T) (human, UniProt O43292-1 2-621)
T1 construct: GPAA1, human, Genbank ID NP_003792.1; The 2×Flag tag follows the TGP tag; also called Gaa1p (yeast name); source: Expi293 cells co-transfected with five plasmids carrying all subunits; purified as the GPI-T complex (Strep-Tactin, Ni-NTA, gel filtration) in digitonin
T1 sequence: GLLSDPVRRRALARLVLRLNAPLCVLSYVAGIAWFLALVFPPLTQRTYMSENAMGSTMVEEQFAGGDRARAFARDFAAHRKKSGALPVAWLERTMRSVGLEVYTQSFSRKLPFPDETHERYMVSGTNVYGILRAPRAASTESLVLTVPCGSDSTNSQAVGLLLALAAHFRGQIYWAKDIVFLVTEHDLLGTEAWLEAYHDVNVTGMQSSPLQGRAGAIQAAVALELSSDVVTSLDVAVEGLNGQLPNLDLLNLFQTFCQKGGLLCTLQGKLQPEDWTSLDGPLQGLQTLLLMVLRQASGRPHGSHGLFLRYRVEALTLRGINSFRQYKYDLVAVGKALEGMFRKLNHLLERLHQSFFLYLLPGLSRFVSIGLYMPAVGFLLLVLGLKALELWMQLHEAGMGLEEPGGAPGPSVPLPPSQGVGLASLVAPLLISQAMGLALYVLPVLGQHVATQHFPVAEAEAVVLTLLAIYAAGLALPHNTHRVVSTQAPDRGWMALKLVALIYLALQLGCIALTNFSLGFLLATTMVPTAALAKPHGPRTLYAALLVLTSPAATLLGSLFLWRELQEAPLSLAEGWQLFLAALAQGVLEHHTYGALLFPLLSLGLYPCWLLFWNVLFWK

B1: PIGS, subunit of the human GPI transamidase (GPI-T) (natural protein)
chain: AAAGAAATHLEVARGKRAALFFAAVAIVLGLPLWWKTTETYRASLPYSQISGLNALQLRLMVPVTVVFTRESVPLDDQEKLPFTVVHEREIPLKYKMKIKCRFQKAYRRALDHEEEALSSGSVQEAEAMLDEPQEQAEGSLTVYVISEHSSLLPQDMMSYIGPKRTAVVRGIMHREAFNIIGRRIVQVAQAMSLTEDVLAAALADHLPEDKWSAEKRRPLKSSLGYEITFSLLNPDPKSHDVYWDIEGAVRRYVQPFLNALGAAGNFSVDSQILYYAMLGVNPRFDSASSSYYLDMHSLPHVINPVESRLGSSAASLYPVLNFLLYVPELAHSPLYIQDKDGAPVATNAFHSPRWGGIMVYNVDSKTYNASVLPVRVEVDMVRVMEVFLAQLRLLFGIAQPQLPPKCLLSGPTSEGLMTWELDRLLWARSVENLATATTTLTSLAQLLGKISNIVIKDDVASEVYKAVAAVQKSAEELASGHLASAFVASQEAVTSSELAFFDPSLLHLLYFPDDQKFAIYIPLFLPMAVPILLSLVKIFLETRKSWRKPEKTD
notes: PIGS, human, Genbank ID NP_149975.1; The Myc tag follows the TGP tag; also called Gpi17p (yeast name); source: Expi293 cells co-transfected with five plasmids carrying all subunits; purified as the GPI-T complex (Strep-Tactin, Ni-NTA, gel filtration) in digitonin
B2: PIGT, subunit of the human GPI transamidase (GPI-T) (natural protein)
chain: LAEPPRDSLREELVITPLPSGDVAATFQFRTRWDSELQREGVSHYRLFPKALGQLISKYSLRELHLSFTQGFWRTRYWGPPFLQAPSGAELWVWFQDTVTDVDKSWKELSNVLSGIFCASLNFIDSTNTVTPTASFKPLGLANDTDHYFLRYAVLPREVVCTENLTPWKKLLPCSSKAGLSVLLKADRLFHTSYHSQAVHIRPVCRNARCTSISWELRQTLSVVFDAFITGQGKKDWSLFRMFSRTLTEPCPLASESRVYVDITTYNQDNETLEVHPPPTTTYQDVILGTRKTYAIYDLLDTAMINNSRNLNIQLKWKRPPENEAPPVPFLHAQRYVSGYGLQKGELSTLLYNTHPYRAFPVLLLDTVPWYLRLYVHTLTITSKGKENKPSYIHYQPAQDRLQPHLLEMLIQLPANSVTKVSIQFERALLKWTEYTPDPNHGFYVSPSVLSALVPSMVAAKPVDWEESPLFNSLFPVSDGSNYFVRLYTEPLLVNLPTPDFSMPYNVICLTCTVVAVCYGSFYNLLTRTFHIEEPRTGGLAKRLANLIRRARGVPPL
modifications: disulfide bond from C182 to PIGK C92
notes: PIGT, human, Genbank ID NP_057021.2; also called Gpi16p (yeast name); source: Expi293 cells co-transfected with five plasmids carrying all subunits; purified as the GPI-T complex (Strep-Tactin, Ni-NTA, gel filtration) in digitonin; not shown: 9×His, C-terminal, kept
B3: PIGK, subunit of the human GPI transamidase (GPI-T) (enzyme)
chain: SHIEDQAEQFFRSGHTNNWAVLVCTSRFWFNYRHVANTLSVYRSVKRLGIPDSHIVLMLADDMACNPRNPKPATVFSHKNMELNVYGDDVEVDYRSYEVTVENFLRVLTGRIPPSTPRSKRLLSDDRSNILIYMTGHGGNGFLKFQDSEEITNIELADAFEQMWQKRRYNELLFIIDTCQGASMYERFYSPNIMALASSQVGEDSLSHQPDPAIGVHLMDRYTFYVLEFLEEINPASQTNMNDLFQVCPKSLCVSTPGHRTDLFQRDPKNVLITDFFGSVRKVEITTETIKLQQDSEIMESSYKEDQMDEKLMEPLKYAEQLPVAQIIHQKPKLKDWHPPGGFILGLWALIIMVFFKTYGIKHMKFIF
modifications: disulfide bond from C92 to PIGT C182
notes: PIGK, human, Genbank ID NP_005473.1; The HA tag follows the TGP tag; also called Gpi8p (yeast name); source: Expi293 cells co-transfected with five plasmids carrying all subunits; purified as the GPI-T complex (Strep-Tactin, Ni-NTA, gel filtration) in digitonin
B4: PIGU, subunit of the human GPI transamidase (GPI-T) (natural protein)
chain: AAPLVLVLVVAVTVRAALFRSSLAEFISERVEVVSPLSSWKRVVEGLSLLDLGVSPYSGAVFHETPLIIYLFHFLIDYAELVFMITDALTAIALYFAIQDFNKVVFKKQKLLLELDQYAPDVAELIRTPMEMRYIPLKVALFYLLNPYTILSCVAKSTCAINNTLIAFFILTTIKGSAFLSAIFLALATYQSLYPLTLFVPGLLYLLQRQYIPVKMKSKAFWIFSWEYAMMYVGSLVVIICLSFFLLSSWDFIPAVYGFILSVPDLTPNIGLFWYFFAEMFEHFSLFFVCVFQINVFFYTIPLAIKLKEHPIFFMFIQIAVIAIFKSYPTVGDVALYMAFFPVWNHLYRFLRNIFVLTCIIIVCSLLFPVLWHLWIYAGSANSNFFYAITLTFNVGQILLISDYFYAFLRREYYLTHGLYLTAKDGTEAMLVLK
notes: PIGU, human, Genbank ID NP_536724.1; gene assembled from overlapping oligonucleotides; also called Gab1p (yeast name); source: Expi293 cells co-transfected with five plasmids carrying all subunits; purified as the GPI-T complex (Strep-Tactin, Ni-NTA, gel filtration) in digitonin; not shown: Strep, C-terminal, kept

Assays:
Assay in all cases: cryo-EM structure; single-particle cryo-EM of the purified GPI-T complex in 0.1% digitonin, 150 mM NaCl, 20 mM Tris HCl pH 8.0; 2.53 Å; five subunits with 1:1 stoichiometry
Settings in all cases: both partners purified
[1] = target: B2
[2] = target: T1, GPAA1, subunit of the human GPI …
[3] = target: B4
[4] = target: B1

Row | binding result [1] | binding result [2] | Binder | binding result [3] | binding result [4]
1 | binds | – | B1 | – | –
2 | – | binds | B2 | – | –
3 | binds | binds | B4 | – | binds

Row | Binder | binding result [1] | binding result [2] | binding result [3] | binding result [4]
4 | B3 | binds | – | binds | binds
